In data set [1] the test system is T1, Factor VII (wild-type, single-chain zymogen).
T1 sequence: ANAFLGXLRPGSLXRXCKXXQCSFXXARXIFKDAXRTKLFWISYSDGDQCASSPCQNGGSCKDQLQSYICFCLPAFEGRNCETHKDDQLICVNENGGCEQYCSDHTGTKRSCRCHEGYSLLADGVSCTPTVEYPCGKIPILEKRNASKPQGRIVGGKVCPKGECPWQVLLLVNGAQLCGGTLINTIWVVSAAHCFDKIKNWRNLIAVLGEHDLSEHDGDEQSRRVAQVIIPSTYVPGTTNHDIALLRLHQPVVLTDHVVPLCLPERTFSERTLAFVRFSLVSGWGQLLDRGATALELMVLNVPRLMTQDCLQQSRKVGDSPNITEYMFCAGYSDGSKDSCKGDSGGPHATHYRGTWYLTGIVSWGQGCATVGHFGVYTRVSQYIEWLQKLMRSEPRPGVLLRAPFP

In data set [2] the target is FVII_XHC: FVII with FX activation peptide inserted in the end of FVII heavy chain. The data set is described as follows: cell-based or functional assay.

The values below come from patent US20120321607A1.

For the substance Factor IXa, in data set [1], the “activation of FVII (cleavage to two chains) on reducing SDS-PAGE; 250 nM FIXa for 20 h” value is on record as “completely activated under all described conditions”. As to Factor Xa, the “activation of FVII (cleavage to two chains) on reducing SDS-PAGE; 100 nM FXa for 2 h” value in data set [1] is listed as “completely activated under all described conditions”. On to Factor XIa, for which, in data set [1], the “activation of FVII (cleavage to two chains) on reducing SDS-PAGE; 75 nM FXIa for 2.5 h” value is on record as “completely activated under all described conditions”. For the substance “Factor IXa (from UniProt P00740 47-461) (enzyme)”, the time to complete activation, reducing SDS-PAGE, 80 nM FIXa in data set [2] was 4 h.
